The target in test [1] is T1, mouse FSTL1 (Mus musculus, UniProt Q62356).
T1 construct: AAA linker + 10xHis (C); made in house; host or cells: Expi293 (transient expression; purified from culture supernatant on HisPur Cobalt Resin)
T1 sequence (Q62356 with tags, fused parts or gaps): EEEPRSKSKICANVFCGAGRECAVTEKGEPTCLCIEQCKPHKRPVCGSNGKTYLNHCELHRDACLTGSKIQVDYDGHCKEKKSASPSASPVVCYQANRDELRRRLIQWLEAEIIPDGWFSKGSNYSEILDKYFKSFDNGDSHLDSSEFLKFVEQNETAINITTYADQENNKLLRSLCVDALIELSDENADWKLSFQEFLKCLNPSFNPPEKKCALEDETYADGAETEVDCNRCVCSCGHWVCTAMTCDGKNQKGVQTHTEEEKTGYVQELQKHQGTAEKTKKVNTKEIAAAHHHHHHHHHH
The experiment in a line: ELISA binding activity of purified antibody against mouse FSTL1. The procedure:
The reactivity of the obtained antibody clones described above with FSTL1 was evaluated by ELISA under the following conditions.
(Table 2 ELISA Conditions for Binding Activity Evaluation of Purified Antibody)
Antibodies used: anti-dinitrophenyl (DNP) antibody (negative control), #5-2, #5-3, #5-8, #5-10, #5-43, #6-55, and #7-34
FIGS. 96 and 97 show results of evaluating binding activity under the condition of Table 3 as to clones differing in screening and antibody purification timings.
(Table 3 ELISA Conditions for Binding Activity Evaluation of Purified Antibody)

Test [2] relates to GFP-positive and Snail-positive B16-F10 tumor cells. The experiment in a line: In vivo, intratumoral administration, Snail-positive B16-F10 bone metastasis model (Example 17). The arrangement: species or system mouse. Conditions: intratumoral 200 μg/0.1 mL/tumor on day 7; day 14. An excerpt: Three antibodies were comparatively analyzed for their antitumor effects and an immunosuppression-mitigating effect using bone metastasis models in which mouse melanoma cells B16-F10 forced to express Snail were subcutaneously and intravenously transplanted in C57BL/6N mice.
1. Experiment Group (n=5) • 1. No treatment • 2. Control IgG (anti-DNP) • 3. Anti-FSTL1 Clone #6-55 • 4. Anti-FSTL1 Clone #7-34 • 5. Anti-FSTL1 Clone #8-1
• Day 0: transplantation of GFP-positive and Snail-positive B16-F10 tumor cells (5×10^5 cells subcutaneously & 1×10^5 cells intravenously) • Day 7: intratumoral administration of the antibody (200 μg/0.1 mL/tumor) • Day 14: various assays (with a focus on flow cytometry analysis)
• Effects on the growth of subcutaneous tumor (calculation of tumor volume by tumor size measurement): measured 7, 11, and 14 days after tumor implantation (FIG. 41C) • Effects on bone metastasis (GFP-positive tumor cells in bone marrow) (FIG. 41A) • Effects on the expansion of mesenchymal stem cells (CD45-negative cells in bone marrow and in the spleen) (FIGS. 41B and 41D) • Effects on the expansion of immunosuppressive Treg cells (CD4-positive and Foxp3-positive cells in bone marrow or the spleen) (FIG. 41D) • Other immunosuppressive properties (FIG. 41D)
In order to evaluate in vivo antibody activity, antitumor effects and immunosuppression-mitigating effects were comparatively analyzed using bone metastasis models in which mouse melanoma cells ([…]) forced to express Snail were subcutaneously and intravenously transplanted in C57BL/6N mice. […]
It is known that when Snail-positive tumor cells are subcutaneously or intravenously transplanted to mice, the tumor metastasizes preferentially to bone marrow in addition to various organs, and this incurs the expansion of mesenchymal stem cells (MSCs) originating in the bone marrow, thereby systemically and strongly suppressing the induction of antitumor immunity (Cancer Research 73: 6185, 2013). […] The percentage (%) of CD45^− cells in the bone marrow cells was analyzed by flow cytometry. […]

The mark [3] stands for this setting: ELISA Table 3 conditions, FIG. 97B.

The source of these data is patent US20180021429A1, “ANTICANCER AGENTS OR ANTIMETASTATIC AGENTS USING FSTL1 AND COMBINATION DRUG THEREOF” (PHARMA FOODS INTERNATIONAL CO., LTD., priority 2015, published 2018).

B1: #8-4: chicken-mouse chimeric anti-FSTL1 antibody clone; variable regions SEQ ID NO: 795 (light), 797 (heavy) (antibody, V domains shown)
VH: AVTLDESGGGLQTPGGGLSLVCKGSGFTLSSFNMFWVRQAPGKGLEWVAGVGKDGGTAYGAAVDGRATISRDSGQSTVRLQLNNLRAEDTGTYFCAKAAGGCSYSWCGAYVGDLDAWGHGTEVIVSS
VL: ASSQPSSVSANPGETVKITCSGGSGYYYGWYQQKSPGSAPVTVIYNNDNKPSDIPSRFSGSKSGSTGTLTITGVQVEDEAVYFCGGYDNSGTGIFGAGTTLTVL
modifications: mouse constant regions
For B1, in test [1] (setting [3]), the “binding activity against mouse FSTL1” value is recorded as “no binding activity”.

B2: #5-8: chicken-mouse chimeric anti-FSTL1 antibody clone; variable regions SEQ ID NO: 771 (light), 773 (heavy) (antibody, V domains shown)
VH: AVTLDESGGGLQTPGGGLSLVCKGSGFTFSSFNMFWVRQAPGKGLEWVAGIGKDGVPKYGTAVDGRATISKDNGQSTMRLQLNNLRAEDTGTYFCAKAAGGCSYDWCGIYTGDIDTWGHGTEVIVSS
VL: ASTQPSSVSANPGEAVKITCSGGSGSYYGWYQQKSPGSAPVTVIYNNNQRPSDIPSRFSGSKSGSTATLTITGVQAEDEAVYFCGGYDSSTGHGGIFGAGTTLTVL
modifications: mouse constant regions
B2: the “binding activity against mouse FSTL1” value in test [1] (setting [3]) is listed as “no binding activity”.

B3: #8-1: chicken-mouse chimeric anti-FSTL1 antibody clone; variable regions SEQ ID NO: 791 (light), 793 (heavy) (antibody, V domains shown)
VH: AVTLDESGGGLQTPGGALSLVCKGSGFTFSSFNMFWVRQAPGKGLEWVAGIGKDGVPKYGAAVDGRATISKDNGQSTMRLQLNNLRAEDTGTYFCAKAAGGCSYDWCGIYAGDIDTWGHGTEVIVSS
VL: ASTQPSSVSANPGEAVKITCSGGSGSYYGWYQQKSPGSAPVTVIYNNNQRPSDIPSRFSGSKSGSTATLTITGVQAEDEAVYFCGGYDSSSGHGGIFGAGTTLTVL
modifications: mouse constant regions
As for B3, in test [1] (setting [3]), the “binding activity against mouse FSTL1” value is “very slightly exhibited binding activity”. Further, the “bone metastasis (GFP-positive tumor cells in bone marrow)” value (shortened to “bone metastasis”) in test [2] is “suppressed”.

B4: #6-55: chicken-mouse chimeric anti-FSTL1 antibody clone; variable regions SEQ ID NO: 783 (light), 785 (heavy) (antibody, V domains shown)
VH: AVTLDESGGGLQTPGGALSLVCKGSGFTFTSVTMQWVRQAPGKGLEWVASVCSGSSTYYAPAVKGRATISRDNGQSTVRLQLSNLRPEDTGTYYCAKIAGRARWSCTSAAYNIDAWGHGTEVIVSS
VL: ASTQPSSVSAIPGETVKITCSGGGNNYGWYQQRSPGSAPVTVIYYNDNRPSNIPSRFSGSTSGSTSTLTITGVQADDEAIYYCGSWDSNTDSGIFGAGTTLTVL
modifications: mouse constant regions
Turning to B4, the “binding activity against mouse FSTL1” value in test [1] (ELISA, FIG. 95B) was “specific and equivalently strong binding activity”. For the same molecule, in test [2], the “bone metastasis” value is “suppressed”.

B5: #7-34: chicken-mouse chimeric anti-FSTL1 antibody clone; variable regions SEQ ID NO: 787 (light), 789 (heavy) (antibody, V domains shown)
VH: AVTLDESGGGLQTPGGGLSLVCKASGFTFSSVTMQWVRQAPGKGLEWVASICSGSSTYYGPAVKGRATISRDNGQNTVRLQLNNLRAEDTATYYCAKIVGRGRWSCTSAAYNIDAWGHGTEVIVSS
VL: ASTQPSSVSANPGETVKITCSGGGNNYGWYQQKSPGSAPVTVIYYNNNRPSNIPSRFSGSTSGSTSTLTITGVQAEDEAVYYCGSYEGSTDSGIFGAGTTLTVL
modifications: mouse constant regions
For the molecule B5, the “bone metastasis” value in test [2] was “no suppressive effect was seen”.
